Laboratory results from US20220204609A1 (SHANDONG BOAN BIOTECHNOLOGY, published 2022).
Read-outs that look alike come from different tables or passages of the source.

Assays:
Claudin18.2 on cells [1] = biological target: T1, Claudin18.2 on cells (human, UniProt P56856-2 1-261); experiment: cell-based or functional assay
Claudin18.2 on cells [2] = biological target: T1, Claudin18.2 on cells; experiment: cell-based or functional assay; remark: listed apart in the source
Claudin18.2 on cells [3] = biological target: T1, Claudin18.2 on cells; experiment: flow cytometry on NUGC4 cells, antibody at 3 µg/mL
Protocol: (§1) Each candidate antibody was serially diluted with FACS buffer (sterile PBS, 0.2% BSA), and added to the 96-well round-bottom plate at 50 μL/well before an incubation at 4° C. for 1 h. The supernatant was discarded after centrifugation at 2000 rpm for 3 min.

Claudin18.2 on cells [4] = biological target: T1, Claudin18.2 on cells; experiment: flow cytometry on NUGC4 cells, antibody at 1.5 µg/mL
Protocol: as §1

Claudin18.2 on cells [5] = biological target: T1, Claudin18.2 on cells; experiment: flow cytometry on NUGC4 cells, antibody at 0.75 µg/mL
Protocol: as §1

Claudin18.2 on cells [6] = biological target: T1, Claudin18.2 on cells; experiment: flow cytometry on 293T-Claudin18.2 cells, antibody at 3 µg/mL
Protocol: as §1

Claudin18.1 on cells [7] = biological target: T2, Claudin18.1 on cells (human, UniProt P56856 1-261); experiment: flow cytometry on 293T-Claudin18.1 cells, antibody at 3 µg/mL
T2 construct: whole, on cells
Protocol: as §1

Claudin18.2 on cells [8] = biological target: T1, Claudin18.2 on cells; experiment: flow cytometry on 293T-Claudin18.2 cells, antibody at 1.5 µg/mL
Protocol: as §1

Claudin18.1 on cells [9] = biological target: T2, Claudin18.1 on cells; experiment: flow cytometry on 293T-Claudin18.1 cells, antibody at 1.5 µg/mL
Protocol: as §1

Claudin18.2 on cells [10] = biological target: T1, Claudin18.2 on cells; experiment: flow cytometry on 293T-Claudin18.2 cells, antibody at 0.75 µg/mL
Protocol: as §1

Claudin18.1 on cells [11] = biological target: T2, Claudin18.1 on cells; experiment: flow cytometry on 293T-Claudin18.1 cells, antibody at 0.75 µg/mL
Protocol: as §1

Claudin18.2 on cells [12] = biological target: T1, Claudin18.2 on cells; experiment: flow cytometry on 293T-Claudin18.2 cells, antibody at 0.375 µg/mL
Protocol: as §1

Claudin18.1 on cells [13] = biological target: T2, Claudin18.1 on cells; experiment: flow cytometry on 293T-Claudin18.1 cells, antibody at 0.375 µg/mL
Protocol: as §1

Claudin18.2 on cells [14] = biological target: T1, Claudin18.2 on cells; experiment: cell-based or functional assay; remark: listed apart in the source
Claudin18.2 on cells [15] = biological target: T1, Claudin18.2 on cells; experiment: flow cytometry on NUGC4 cells, antibody at 3 µg/mL; remark: listed apart in the source
Protocol: as §1

Claudin18.2 on cells [16] = biological target: T1, Claudin18.2 on cells; experiment: flow cytometry on NUGC4 cells, antibody at 1.5 µg/mL; remark: listed apart in the source
Protocol: as §1

Claudin18.2 on cells [17] = biological target: T1, Claudin18.2 on cells; experiment: flow cytometry on NUGC4 cells, antibody at 0.75 µg/mL; remark: listed apart in the source
Protocol: as §1

Row | ADCC inhibition rate, %, antibody 0.1 µg/mL, 293T-Claudin18.2 target cells, PBMC effectors, LDH (Claudin18.2 on cells [1]) [%] | ADCC inhibition rate, %, antibody 1 µg/mL, 293T-Claudin18.2 target cells, PBMC effectors, LDH (Claudin18.2 on cells [1]) [%] | ADCC inhibition rate, %, antibody 10 µg/mL, 293T-Claudin18.2 target cells, PBMC effectors, LDH (Claudin18.2 on cells [1]) [%] | ADCC EC50 (µg/mL), NUGC4 target cells, Jurkat reporter effector cells, Bio-Glo (Claudin18.2 on cells [2]) [µg/mL] | mean fluorescence intensity (Claudin18.2 on cells [3]) | mean fluorescence intensity (Claudin18.2 on cells [4]) | mean fluorescence intensity (Claudin18.2 on cells [5]) | mean fluorescence intensity (Claudin18.2 on cells [6]) | mean fluorescence intensity (Claudin18.1 on cells [7]) | mean fluorescence intensity (Claudin18.2 on cells [8]) | mean fluorescence intensity (Claudin18.1 on cells [9]) | mean fluorescence intensity (Claudin18.2 on cells [10]) | mean fluorescence intensity (Claudin18.1 on cells [11]) | mean fluorescence intensity (Claudin18.2 on cells [12]) | mean fluorescence intensity (Claudin18.1 on cells [13]) | ADCC EC50 (µg/mL), NUGC4 target cells, Jurkat reporter effector cells, Bio-Glo (Claudin18.2 on cells [14]) [µg/mL] | mean fluorescence intensity (Claudin18.2 on cells [15]) | mean fluorescence intensity (Claudin18.2 on cells [16]) | mean fluorescence intensity (Claudin18.2 on cells [17]) | Binder
1 | 15.6 | 27.2 | 58.5 | 17.3 | 32400 | 13200 | 11100 | 1.09e+06 | 11000 | 855000 | 37900 | 583000 | 18100 | 308000 | 21500 |  |  |  |  | CLDQ1-CA841-IgG1 (antibody, V domains shown, Complete IgG1 made in HEK293 cells) VH: QVQLVQSGAEVKKPGSSVKVSCKASGGTFSSYAISWVRQAPGQGLEWMGRIIPILGIANYAQKFQGRVTVTADKSTSTAYMELSSLRSEDTAVYYCARERDNWDPYYYYYGMDVWGQGTTVTVSS VL: DIQMTQSPSTLSASVGDRVTITCRASQSINSWLAWYQQKPGKAPKLLIYKASSLESGVPSRFSGSGSGTEFTLTISSLQPDDFATYYCQQYNSFPLTFGGGTKVEIKR
2 | -0.212 | 12.3 | 39.9 |  |  |  |  | 742000 |  | 578000 |  | 365000 |  | 196000 |  |  | 18400 | 12000 | 9230 | CLD389-CA852-IgG1 (antibody, V domains shown, Complete IgG1 made in HEK293 cells) VH: QVQLVESGGGVVQPGRSLRLSCAASGFTFSSYAMHWVRQAPGKGLEWVAVISYDGSKKYYADSVKGRFTISRDNSKNTLYLQMNSLRAEDTAVYYCARDPTMVRGVRGMDVWGQGTTVTVSS VL: EIVMTQSPSTLSASIGDRVTITCRASQGIRNDLGWYQQKPGKAPKLLIYAASSLQSGVPSRFSGSGSGTDFTLTISSLQPEDFATYYCLQDYNYPLTFGGGTKVEIKR

Continued, binder first:

Row | Binder | ADCC inhibition rate, %, antibody 0.1 µg/mL, 293T-Claudin18.2 target cells, PBMC effectors, LDH (Claudin18.2 on cells [1]) [%] | ADCC inhibition rate, %, antibody 1 µg/mL, 293T-Claudin18.2 target cells, PBMC effectors, LDH (Claudin18.2 on cells [1]) [%] | ADCC inhibition rate, %, antibody 10 µg/mL, 293T-Claudin18.2 target cells, PBMC effectors, LDH (Claudin18.2 on cells [1]) [%] | ADCC EC50 (µg/mL), NUGC4 target cells, Jurkat reporter effector cells, Bio-Glo (Claudin18.2 on cells [2]) [µg/mL] | mean fluorescence intensity (Claudin18.2 on cells [3]) | mean fluorescence intensity (Claudin18.2 on cells [4]) | mean fluorescence intensity (Claudin18.2 on cells [5]) | mean fluorescence intensity (Claudin18.2 on cells [6]) | mean fluorescence intensity (Claudin18.1 on cells [7]) | mean fluorescence intensity (Claudin18.2 on cells [8]) | mean fluorescence intensity (Claudin18.1 on cells [9]) | mean fluorescence intensity (Claudin18.2 on cells [10]) | mean fluorescence intensity (Claudin18.1 on cells [11]) | mean fluorescence intensity (Claudin18.2 on cells [12]) | mean fluorescence intensity (Claudin18.1 on cells [13]) | ADCC EC50 (µg/mL), NUGC4 target cells, Jurkat reporter effector cells, Bio-Glo (Claudin18.2 on cells [14]) [µg/mL] | mean fluorescence intensity (Claudin18.2 on cells [15]) | mean fluorescence intensity (Claudin18.2 on cells [16]) | mean fluorescence intensity (Claudin18.2 on cells [17])
3 | CLD389-CA802-IgG1 (antibody, V domains shown, Complete IgG1 made in HEK293 cells) VH: QVQLVESGGGVVQPGRSLRLSCAASGFTFSSYAMHWVRQVPGKGLEWVAIISYDGSIKYYADSVKGQFTISRDNSKNTLSLQMNSLRPEDTAVYYCARDPTMVRGVRGMDVWGQGTTVTVSS VL: DIQMTQSPSSLSASVGDRVTITCRASQGIRNDLGWYQQKPGKAPKLLIYAASSLQSGVPSRFSGSGSGTDFTLTISSLQPEDFATYYCLQDYNYPLTFGGGTKLEIKR | 25.6 | 61.4 | 61.2 |  | 113000 | 58100 | 24400 | 1.23e+06 | 194000 | 1.05e+06 | 163000 | 774000 | 141000 | 495000 | 96700 | 15.7 |  |  | 
4 | CLD389-279-IgG1 (antibody, V domains shown, Complete IgG1 made in HEK293 cells; also called C279; CLD389-C279) VH: EVQLVQSGGGVVQPGRSLRLSCAASGFTFSNYAMHWVRQAPGKGLEWVAVISYDGSNKYYADSVKGRFTISRDNSKNTLYLQMNSLRAEDTAVYYCARELRFFDWLLGRAFDIWGQGTMVTVSS VL: EIVMTQSPPSLSASVGDRVTITCRASQGIRNDLGWYQQKPGKAPKLLIYAASSLQSGVPSRFSGSGSGTDFTLTISSLQPEDFATYYCLQDYNYPWTFGQGTKLEIKR | 7.53 | 16.1 | 41 |  | 158000 | 78300 | 40000 | 1.24e+06 |  | 1.06e+06 |  | 776000 |  | 488000 |  | 0.81 |  |  | 
